This data set deals with the molecule itself. The experiment in a line: crystal structure.

The values below come from publication PMC6791372 (ACS chemical biology, 2019).

B1: MetA crystallisation construct (C-terminal residues 297-309 truncated, P257I) (enzyme, E. coli, UniProt P07623 2-296, looked up)
chain: PIRVPDELPAVNFLREENVFVMTTSRASGQEIRPLKVLILNLMPKKIETENQFLRLLSNSPLQVDIQLLRIDSRESRNTPAEHLNNFYCNFEDIQDQNFDGLIVTGAPLGLVEFNDVAYWPQIKQVLEWSKDHVTSTLFVCWAVQAALNILYGIPKQTRTEKLSGVYEHHILHPHALLTRGFDDSFLAPHSRYADFPAALIRDYTDLEILAETEEGDAYLFASKDKRIAFVTGHPEYDAQTLAQEFFRDVEAGLDIDVPYNYFPHNDPQNTPRASWRSHGNLLFTNWLNYYVYQI
In the case of B1, the binding result is “binds”.
